Patent CN113563467A (SHANGHAI PUMING BIOLOGICAL TECH CO LTD, dated 2021)

What was measured:
[1] = target: T1, 人C5蛋白 in 人血清补体 (Normal Human Serum Complement, Quidel, A112) (human, UniProt P01031 19-1676); test: cell-based or functional assay
[2] = target: T1, 人C5蛋白 in 人血清补体 (Normal Human Serum …); test: cell-based or functional assay; remark: listed apart in the source

T1 sequence (P01031 19-1676 limits assumed): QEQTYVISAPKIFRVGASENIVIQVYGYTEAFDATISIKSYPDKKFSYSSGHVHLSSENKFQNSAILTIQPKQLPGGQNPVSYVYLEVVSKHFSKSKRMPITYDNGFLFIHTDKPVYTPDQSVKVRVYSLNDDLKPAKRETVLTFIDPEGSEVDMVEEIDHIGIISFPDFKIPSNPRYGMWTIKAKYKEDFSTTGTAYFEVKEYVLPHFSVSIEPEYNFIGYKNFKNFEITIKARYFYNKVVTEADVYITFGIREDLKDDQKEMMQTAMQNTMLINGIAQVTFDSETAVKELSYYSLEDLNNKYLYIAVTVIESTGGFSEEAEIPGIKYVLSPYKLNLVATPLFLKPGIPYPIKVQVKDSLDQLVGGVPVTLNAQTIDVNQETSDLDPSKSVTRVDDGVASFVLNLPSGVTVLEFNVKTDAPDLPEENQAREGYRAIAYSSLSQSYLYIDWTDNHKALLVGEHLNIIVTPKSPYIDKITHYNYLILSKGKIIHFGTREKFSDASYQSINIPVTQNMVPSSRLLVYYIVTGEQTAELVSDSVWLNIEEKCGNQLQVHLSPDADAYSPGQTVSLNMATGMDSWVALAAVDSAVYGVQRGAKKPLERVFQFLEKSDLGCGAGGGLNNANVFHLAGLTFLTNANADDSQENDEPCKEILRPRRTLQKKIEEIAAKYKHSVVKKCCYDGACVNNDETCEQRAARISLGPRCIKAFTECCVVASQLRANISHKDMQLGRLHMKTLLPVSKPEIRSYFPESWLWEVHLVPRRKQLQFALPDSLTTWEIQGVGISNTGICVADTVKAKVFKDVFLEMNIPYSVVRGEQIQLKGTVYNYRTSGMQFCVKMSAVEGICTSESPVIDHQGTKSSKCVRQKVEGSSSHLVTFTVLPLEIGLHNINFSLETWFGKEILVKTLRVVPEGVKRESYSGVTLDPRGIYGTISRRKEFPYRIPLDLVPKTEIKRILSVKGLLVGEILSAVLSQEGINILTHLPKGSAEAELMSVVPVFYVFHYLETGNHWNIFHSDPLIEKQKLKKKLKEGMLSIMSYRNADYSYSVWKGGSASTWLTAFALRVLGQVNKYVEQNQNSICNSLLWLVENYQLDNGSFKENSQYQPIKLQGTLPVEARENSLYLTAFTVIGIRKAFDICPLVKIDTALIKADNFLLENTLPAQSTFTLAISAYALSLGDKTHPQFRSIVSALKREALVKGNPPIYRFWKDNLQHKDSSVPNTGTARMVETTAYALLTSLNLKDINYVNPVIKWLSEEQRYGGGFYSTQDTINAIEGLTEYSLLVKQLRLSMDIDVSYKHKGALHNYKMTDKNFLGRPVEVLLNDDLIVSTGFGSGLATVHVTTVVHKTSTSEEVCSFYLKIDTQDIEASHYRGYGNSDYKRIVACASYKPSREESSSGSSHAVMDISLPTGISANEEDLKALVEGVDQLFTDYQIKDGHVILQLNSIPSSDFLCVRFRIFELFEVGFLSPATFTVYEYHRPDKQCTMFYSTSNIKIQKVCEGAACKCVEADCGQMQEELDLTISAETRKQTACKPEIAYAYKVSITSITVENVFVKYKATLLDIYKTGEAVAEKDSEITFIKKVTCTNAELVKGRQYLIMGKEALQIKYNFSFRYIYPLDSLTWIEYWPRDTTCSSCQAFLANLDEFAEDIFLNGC

B1: Ref1 (对照抗体依库珠单抗可变区，hIgG1/hIgG-Kappa) (antibody, V domains shown)
VH: QVQLVQSGAEVKKPGASVKVSCKASGYIFSNYWIQWVRQAPGQGLEWMGEILPGSGSTEYTENFKDRVTMTRDTSTSTVYMELSSLRSEDTAVYYCARYFFGSSPNWYFDVWGQGTLVTVSS
VL: DIQMTQSPSSLSASVGDRVTITCGASENIYGALNWYQQKPGKAPKLLIYGATNLADGVPSRFSGSGSGTDFTLTISSLQPEDFATYYCQNVLNTPLTFGQGTKVEIKR
[1]
  IC50(ug/ml), 补体依赖性溶血实验: 8.73 µg/mL
[2]
  EC50(ug/ml), 补体依赖性细胞毒性(CDC)阻断分析: 2.63 µg/mL
